Test results: IntAct's records for PubMed 23565059

B1: Homeodomain-interacting protein kinase 2 (Mus musculus), Q9QZR5 (parent)
chain: MAPVYEGMASHVQVFSPHTLQSSAFCSVKKLKVEPSSNWDMTGYGSHSKVYSQSKNIPPSQPASTTVSTSLPIPNPSLPYEQTIIFPGSTGHIVVTSASSTSVTGQVLGGPHNLMRRSTVSLLDTYQKCGLKRKSEEIENTSSVQIIEEHPPMIQNNASGATVATATTSTATSKNSGSNSEGDYQLVQHEVLCSMTNTYEVLEFLGRGTFGQVVKCWKRGTNEIVAIKILKNHPSYARQGQIEVSILARLSTESADDYNFVRAYECFQHKNHTCLVFEMLEQNLYDFLKQNKFSPLPLKYIRPVLQQVATALMKLKSLGLIHADLKPENIMLVDPSRQPYRVKVIDFGSASHVSKAVCSTYLQSRYYRAPEIILGLPFCEAIDMWSLGCVIAELFLGWPLYPGASEYDQIRYISQTQGLPAEYLLSAGTKTTRFFNRDTDSPYPLWRLKTPDDHEAETGIKSKEARKYIFNCLDDMAQVNMTTDLEGSDMLVEKADRREFIDLLKKMLTIDADKRVTPIETLNHPFVTMTHLLDFPHSAHVKSCFQNMEICKRRVNMYDTVNQSKTPFITHVAPSTSTNLTMTFNNQLTTVHNQAPTTSSATLSLANPEVSILNYQSALYQPSAASMAAVAPRSMPLQTGTAQICARPDPFQQALIVCPPGFQGLQASPSKHAGYSVRMENAVPIVTQAPGAQPLQIQPGLLAQQAWPGGAQQILLPPAWQQLTGVATHTSVQHAAVIPETMAGTQQLADWRNTHAHGSHYNPIMQQPALLTGHVTLPAAQPLNVGVAHVMRQQPTSTTSSRKSKQHQSSVRNVSTCEVTSSQAISSPQRSKRVKENTPPRCAMVHSSPACSTSVTCGWGDVASSTTRERQRQTIVIPDTPSPTVSVITISSDTDEEEEQKHAPTSTVSKQRKNVISCVTVHDSPYSDSSSNTSPYSVQQRTGHNGTNTLDTKGGLENHCTGNPRTIIVPPLKTQASEVLVECDSLGPAISASHHSSSFKSKSSSTVTSTSGHSSGSSSGAIAYRQQRPGPHFQQQQPLNLSQAQQHMAADRTGSHRRQQAYITPTMAQAPYTFPHNSPSHGTVHPHLAAAAHLPTQPHLYTYTAPTALGSTGTVAHLVASQGSARHTVQHTAYPASIVHQVPVSMGPRVLPSPTIHPSQYPAQFAHQTYISASPASTVYTGYPLSPAKVNQYPYI

Variants of: B1
Conditions: with mef2c_mouse Mef2c

Variant | effect of a mutation on the interaction
K228A | decreasing interaction strength
